The values that follow come from publication PMC4499147.

In this test the target is RNF168 (UniProt Q8IYW5). In words: anti-HA co-IP, FLAG blot. The conditions noted are these: reference: wild-type HA-LSD1.

As to LSD1 (from UniProt O60341) S131A, where the note is “sites S131”, the “binding against the reference” value is listed as “weaker”.

In the case of LSD1 (from UniProt O60341) S137A, the “binding against the reference” value (sites S137) is on record as “weaker”.
